Results: the RNAGym collection of RNA variant scans (doi:10.1021/acssynbio.7b00057)

B1: Pistol ribozyme (parent)
chain: GGGUCGUUGUUCCAUAAUCGCGUGGAUAUGGCACGCAAGUUUCUACCGGGCACCGUAAAUGUCCGACUGGAGCCGUUCGGGCGGCUAUAAACAGACCUCAGGCCCGAAGCGUGGCGGCACCUGCCGCCGGUGGUAAAAAAGAUCGGAAGAGCACACGUCU

Variants of: B1
Test: aptazyme ON/OFF ratio, guanine; higher = stronger switching; co-transcriptional cleavage with and without guanine

Row | Variant | aptazyme ON/OFF ratio
1 | GGGUCGCAAGUCCAUAAUCGCGUGGAUAUGGCACGCAAGUUUCUACCGGGCACCGUAAAUGUCCGACUGGAGCCGUUCGGGCGGCUAUAAACAGACCUCAGGCCCGAAGCGUGGCGGCACCUGCCGCCGGUGGUAAAAAAGAUCGGAAGAGCACACGUCU | 1.38
2 | GGGUCGCAAGUGCAUAAUCGCGUGGAUAUGGCACGCAAGUUUCUACCGGGCACCGUAAAUGUCCGACUGGAGCCGUUCGGGCGGCUAUAAACAGACCUCAGGCCCGAAGCGUGGCGGCACCUGCCGCCGGUGGUAAAAAAGAUCGGAAGAGCACACGUCU | 1.25
3 | GGGUCGCAAGUUCAUAAUCGCGUGGAUAUGGCACGCAAGUUUCUACCGGGCACCGUAAAUGUCCGACUGGAGCCGUUCGGGCGGCUAUAAACAGACCUCAGGCCCGAAGCGUGGCGGCACCUGCCGCCGGUGGUAAAAAAGAUCGGAAGAGCACACGUCU | 1.29
4 | GGGUCGCAAGUACAUAAUCGCGUGGAUAUGGCACGCAAGUUUCUACCGGGCACCGUAAAUGUCCGACUGGAGCCGUUCGGGCGGCUAUAAACAGACCUCAGGCCCGAAGCGUGGCGGCACCUGCCGCCGGUGGUAAAAAAGAUCGGAAGAGCACACGUCU | 1.15
5 | GGGUCGCAAGUGAAUAAUCGCGUGGAUAUGGCACGCAAGUUUCUACCGGGCACCGUAAAUGUCCGACUGGAGCCGUUCGGGCGGCUAUAAACAGACCUCAGGCCCGAAGCGUGGCGGCACCUGCCGCCGGUGGUAAAAAAGAUCGGAAGAGCACACGUCU | 1.1
6 | GGGUCGCAAGUGUAUAAUCGCGUGGAUAUGGCACGCAAGUUUCUACCGGGCACCGUAAAUGUCCGACUGGAGCCGUUCGGGCGGCUAUAAACAGACCUCAGGCCCGAAGCGUGGCGGCACCUGCCGCCGGUGGUAAAAAAGAUCGGAAGAGCACACGUCU | 1.27
7 | GGGUCGCAAGUGGAUAAUCGCGUGGAUAUGGCACGCAAGUUUCUACCGGGCACCGUAAAUGUCCGACUGGAGCCGUUCGGGCGGCUAUAAACAGACCUCAGGCCCGAAGCGUGGCGGCACCUGCCGCCGGUGGUAAAAAAGAUCGGAAGAGCACACGUCU | 1.04
8 | GGGUCGCAACGUCAUAAUCGCGUGGAUAUGGCACGCAAGUUUCUACCGGGCACCGUAAAUGUCCGACUGGAGCCGUUCGGGCGGCUAUAAACAGACCUCAGGCCCGAAGCGUGGCGGCACCUGCCGCCGGUGGUAAAAAAGAUCGGAAGAGCACACGUCU | 1.22
9 | GGGUCGCAAGAUAAUAAUCGCGUGGAUAUGGCACGCAAGUUUCUACCGGGCACCGUAAAUGUCCGACUGGAGCCGUUCGGGCGGCUAUAAACAGACCUCAGGCCCGAAGCGUGGCGGCACCUGCCGCCGGUGGUAAAAAAGAUCGGAAGAGCACACGUCU | 1.11
10 | GGGUCGCAACGCUAUAAUCGCGUGGAUAUGGCACGCAAGUUUCUACCGGGCACCGUAAAUGUCCGACUGGAGCCGUUCGGGCGGCUAUAAACAGACCUCAGGCCCGAAGCGUGGCGGCACCUGCCGCCGGUGGUAAAAAAGAUCGGAAGAGCACACGUCU | 1.1
11 | GGGUCGCAACGCAAUAAUCGCGUGGAUAUGGCACGCAAGUUUCUACCGGGCACCGUAAAUGUCCGACUGGAGCCGUUCGGGCGGCUAUAAACAGACCUCAGGCCCGAAGCGUGGCGGCACCUGCCGCCGGUGGUAAAAAAGAUCGGAAGAGCACACGUCU | 1.15
12 | GGGUCGCAACGCGAUAAUCGCGUGGAUAUGGCACGCAAGUUUCUACCGGGCACCGUAAAUGUCCGACUGGAGCCGUUCGGGCGGCUAUAAACAGACCUCAGGCCCGAAGCGUGGCGGCACCUGCCGCCGGUGGUAAAAAAGAUCGGAAGAGCACACGUCU | 1.13
13 | GGGUCGCAAGAAGAUAAUCGCGUGGAUAUGGCACGCAAGUUUCUACCGGGCACCGUAAAUGUCCGACUGGAGCCGUUCGGGCGGCUAUAAACAGACCUCAGGCCCGAAGCGUGGCGGCACCUGCCGCCGGUGGUAAAAAAGAUCGGAAGAGCACACGUCU | 1.17
14 | GGGUCGCAAGAAUAUAAUCGCGUGGAUAUGGCACGCAAGUUUCUACCGGGCACCGUAAAUGUCCGACUGGAGCCGUUCGGGCGGCUAUAAACAGACCUCAGGCCCGAAGCGUGGCGGCACCUGCCGCCGGUGGUAAAAAAGAUCGGAAGAGCACACGUCU | 1.17
15 | GGGUCGCAAGAAAAUAAUCGCGUGGAUAUGGCACGCAAGUUUCUACCGGGCACCGUAAAUGUCCGACUGGAGCCGUUCGGGCGGCUAUAAACAGACCUCAGGCCCGAAGCGUGGCGGCACCUGCCGCCGGUGGUAAAAAAGAUCGGAAGAGCACACGUCU | 1.18
16 | GGGUCGCAAGAACAUAAUCGCGUGGAUAUGGCACGCAAGUUUCUACCGGGCACCGUAAAUGUCCGACUGGAGCCGUUCGGGCGGCUAUAAACAGACCUCAGGCCCGAAGCGUGGCGGCACCUGCCGCCGGUGGUAAAAAAGAUCGGAAGAGCACACGUCU | 1.15
17 | GGGUCGCAAGAUCAUAAUCGCGUGGAUAUGGCACGCAAGUUUCUACCGGGCACCGUAAAUGUCCGACUGGAGCCGUUCGGGCGGCUAUAAACAGACCUCAGGCCCGAAGCGUGGCGGCACCUGCCGCCGGUGGUAAAAAAGAUCGGAAGAGCACACGUCU | 1.01
18 | GGGUCGCAAGAGCAUAAUCGCGUGGAUAUGGCACGCAAGUUUCUACCGGGCACCGUAAAUGUCCGACUGGAGCCGUUCGGGCGGCUAUAAACAGACCUCAGGCCCGAAGCGUGGCGGCACCUGCCGCCGGUGGUAAAAAAGAUCGGAAGAGCACACGUCU | 1.16

Row | Variant | aptazyme ON/OFF ratio
19 | GGGUCGCAACGUAAUAAUCGCGUGGAUAUGGCACGCAAGUUUCUACCGGGCACCGUAAAUGUCCGACUGGAGCCGUUCGGGCGGCUAUAAACAGACCUCAGGCCCGAAGCGUGGCGGCACCUGCCGCCGGUGGUAAAAAAGAUCGGAAGAGCACACGUCU | 1.17
20 | GGGUCGCAACGUUAUAAUCGCGUGGAUAUGGCACGCAAGUUUCUACCGGGCACCGUAAAUGUCCGACUGGAGCCGUUCGGGCGGCUAUAAACAGACCUCAGGCCCGAAGCGUGGCGGCACCUGCCGCCGGUGGUAAAAAAGAUCGGAAGAGCACACGUCU | 1.26
21 | GGGUCGCAACGUGAUAAUCGCGUGGAUAUGGCACGCAAGUUUCUACCGGGCACCGUAAAUGUCCGACUGGAGCCGUUCGGGCGGCUAUAAACAGACCUCAGGCCCGAAGCGUGGCGGCACCUGCCGCCGGUGGUAAAAAAGAUCGGAAGAGCACACGUCU | 1.27
22 | GGGUCGCAAGUCAAUAAUCGCGUGGAUAUGGCACGCAAGUUUCUACCGGGCACCGUAAAUGUCCGACUGGAGCCGUUCGGGCGGCUAUAAACAGACCUCAGGCCCGAAGCGUGGCGGCACCUGCCGCCGGUGGUAAAAAAGAUCGGAAGAGCACACGUCU | 1.17
23 | GGGUCGCAAGUCUAUAAUCGCGUGGAUAUGGCACGCAAGUUUCUACCGGGCACCGUAAAUGUCCGACUGGAGCCGUUCGGGCGGCUAUAAACAGACCUCAGGCCCGAAGCGUGGCGGCACCUGCCGCCGGUGGUAAAAAAGAUCGGAAGAGCACACGUCU | 1.39
24 | GGGUCGCAAGUCGAUAAUCGCGUGGAUAUGGCACGCAAGUUUCUACCGGGCACCGUAAAUGUCCGACUGGAGCCGUUCGGGCGGCUAUAAACAGACCUCAGGCCCGAAGCGUGGCGGCACCUGCCGCCGGUGGUAAAAAAGAUCGGAAGAGCACACGUCU | 1.08
25 | GGGUCGCAAGACCAUAAUCGCGUGGAUAUGGCACGCAAGUUUCUACCGGGCACCGUAAAUGUCCGACUGGAGCCGUUCGGGCGGCUAUAAACAGACCUCAGGCCCGAAGCGUGGCGGCACCUGCCGCCGGUGGUAAAAAAGAUCGGAAGAGCACACGUCU | 1.01
26 | GGGUCGCAAGAGGAUAAUCGCGUGGAUAUGGCACGCAAGUUUCUACCGGGCACCGUAAAUGUCCGACUGGAGCCGUUCGGGCGGCUAUAAACAGACCUCAGGCCCGAAGCGUGGCGGCACCUGCCGCCGGUGGUAAAAAAGAUCGGAAGAGCACACGUCU | 1.07
27 | GGGUCGCAAGAGUAUAAUCGCGUGGAUAUGGCACGCAAGUUUCUACCGGGCACCGUAAAUGUCCGACUGGAGCCGUUCGGGCGGCUAUAAACAGACCUCAGGCCCGAAGCGUGGCGGCACCUGCCGCCGGUGGUAAAAAAGAUCGGAAGAGCACACGUCU | 1.24
28 | GGGUCGCAAGAGAAUAAUCGCGUGGAUAUGGCACGCAAGUUUCUACCGGGCACCGUAAAUGUCCGACUGGAGCCGUUCGGGCGGCUAUAAACAGACCUCAGGCCCGAAGCGUGGCGGCACCUGCCGCCGGUGGUAAAAAAGAUCGGAAGAGCACACGUCU | 1.06
29 | GGGUCGCAAGUAUAUAAUCGCGUGGAUAUGGCACGCAAGUUUCUACCGGGCACCGUAAAUGUCCGACUGGAGCCGUUCGGGCGGCUAUAAACAGACCUCAGGCCCGAAGCGUGGCGGCACCUGCCGCCGGUGGUAAAAAAGAUCGGAAGAGCACACGUCU | 1.25
30 | GGGUCGCAAGUAGAUAAUCGCGUGGAUAUGGCACGCAAGUUUCUACCGGGCACCGUAAAUGUCCGACUGGAGCCGUUCGGGCGGCUAUAAACAGACCUCAGGCCCGAAGCGUGGCGGCACCUGCCGCCGGUGGUAAAAAAGAUCGGAAGAGCACACGUCU | 1.15
31 | GGGUCGCAAGUAAAUAAUCGCGUGGAUAUGGCACGCAAGUUUCUACCGGGCACCGUAAAUGUCCGACUGGAGCCGUUCGGGCGGCUAUAAACAGACCUCAGGCCCGAAGCGUGGCGGCACCUGCCGCCGGUGGUAAAAAAGAUCGGAAGAGCACACGUCU | 1.14
32 | GGGUCGCAAGUUUAUAAUCGCGUGGAUAUGGCACGCAAGUUUCUACCGGGCACCGUAAAUGUCCGACUGGAGCCGUUCGGGCGGCUAUAAACAGACCUCAGGCCCGAAGCGUGGCGGCACCUGCCGCCGGUGGUAAAAAAGAUCGGAAGAGCACACGUCU | 0.977
33 | GGGUCGCAAGUUAAUAAUCGCGUGGAUAUGGCACGCAAGUUUCUACCGGGCACCGUAAAUGUCCGACUGGAGCCGUUCGGGCGGCUAUAAACAGACCUCAGGCCCGAAGCGUGGCGGCACCUGCCGCCGGUGGUAAAAAAGAUCGGAAGAGCACACGUCU | 1.26
34 | GGGUCGCAAGUUGAUAAUCGCGUGGAUAUGGCACGCAAGUUUCUACCGGGCACCGUAAAUGUCCGACUGGAGCCGUUCGGGCGGCUAUAAACAGACCUCAGGCCCGAAGCGUGGCGGCACCUGCCGCCGGUGGUAAAAAAGAUCGGAAGAGCACACGUCU | 1.14
35 | GGGUCGCAACGGGAUAAUCGCGUGGAUAUGGCACGCAAGUUUCUACCGGGCACCGUAAAUGUCCGACUGGAGCCGUUCGGGCGGCUAUAAACAGACCUCAGGCCCGAAGCGUGGCGGCACCUGCCGCCGGUGGUAAAAAAGAUCGGAAGAGCACACGUCU | 1.12
36 | GGGUCGCAACGGUAUAAUCGCGUGGAUAUGGCACGCAAGUUUCUACCGGGCACCGUAAAUGUCCGACUGGAGCCGUUCGGGCGGCUAUAAACAGACCUCAGGCCCGAAGCGUGGCGGCACCUGCCGCCGGUGGUAAAAAAGAUCGGAAGAGCACACGUCU | 1.11
